Changes are numbered by the printed parent chain. “And” between values parts separate entries of the source, which are not always exact repeats. Identical values can stand only once.
How the values were obtained:
[1] = target: T1, Human CD137 (recombinant protein, Example 11) (human, UniProt Q07011 24-186); test: dual antigen binding ELISA with CD137 and GPC3 bound at the same time; which antigen is coated is not stated
[2] = target: T2, Human GPC3 (recombinant protein, Example 11) (human, UniProt P51654 25-559, limits assumed); test: as above
[3] = target: human CD137 ECD mutant P47A (human, UniProt Q07011 24-186); test: ELISA on wild type and mutant CD137 proteins
[4] = target: human CD137 ECD mutant F36A (human, UniProt Q07011 24-186); test: ELISA on wild type and mutant CD137 proteins
[5] = target: human CD137 ECD mutant P49A (human, UniProt Q07011 24-186); test: ELISA on wild type and mutant CD137 proteins
[6] = target: C1q (UniProt P02745 23-245; P02746 28-253; P02747 29-245); test: C1q binding ELISA
[7] = target: T3, full-length human CD137 on cells (human, UniProt Q07011 24-255); test: cell-based or functional assay
[8] = target: T4, human GPC3 on cells (human, UniProt P51654 25-559); test: cell-based or functional assay
[9] = target: T5, GK28b (human GPC3 AA 537-563) (human, constructed to the N terminal of biotin, generating GK28b-KLH (so in the source)); test: ELISA on GK28b-KLH [A]
T5 construct: also called GK28b-KLH
T5 peptide: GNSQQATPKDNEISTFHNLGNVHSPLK

[10] = target: T3, full-length human CD137 on cells; test: FACS on HuT78/CD137 cells
[11] = target: T4, human GPC3 on cells; test: FACS on Hepa1-6T-OS8-GPC3 cells
[12] = target: Mouse GPC3 (mouse, UniProt Q8CFZ4 25-558, limits assumed); test: SPR
[13] = target: T6, Mouse CD137 (mouse, UniProt P20334 24-187, limits assumed); test: SPR
T6 construct: also called murine CD137
T6 sequence (looked up): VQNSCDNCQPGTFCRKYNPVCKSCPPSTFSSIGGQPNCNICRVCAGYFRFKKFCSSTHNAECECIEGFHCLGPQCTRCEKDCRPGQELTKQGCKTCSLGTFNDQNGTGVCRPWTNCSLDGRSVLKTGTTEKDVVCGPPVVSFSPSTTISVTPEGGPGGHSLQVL

[14] = target: T7, DS50b (human GPC3 AA 511-560) (human, constructed to the N terminal of biotin, generating DS50b-KLH (so in the source)); test: ELISA on DS50b-KLH [B]
T7 construct: also called DS50b-KLH
T7 peptide: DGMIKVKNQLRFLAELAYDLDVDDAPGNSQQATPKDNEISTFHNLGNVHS

[15] = target: T8, Monkey GPC3 (cynomolgous monkey, UniProt A0A2K5VK50 24-553); test: SPR
T8 construct: Bought protein; also called monkey GPC3 (Cat #GP3-C5225, Acrobiosystem)

[16] = target: T2, Human GPC3 (recombinant protein, …); test: SPR
[17] = target: T9, FcγRIIAH131 (UniProt P12318 36-218, limits assumed); test: ELISA
T9 sequence (looked up): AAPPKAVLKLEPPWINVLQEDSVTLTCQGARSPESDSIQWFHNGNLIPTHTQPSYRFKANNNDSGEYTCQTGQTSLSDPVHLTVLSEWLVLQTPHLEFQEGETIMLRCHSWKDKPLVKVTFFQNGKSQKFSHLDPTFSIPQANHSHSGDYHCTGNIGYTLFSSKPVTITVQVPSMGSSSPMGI

[18] = target: FcγRIIIB (UniProt O75015 17-200, limits assumed); test: ELISA
[19] = target: FcγRIIIAV158 (UniProt P08637 17-208, limits assumed); test: ELISA
[20] = target: T10, FcγRIIB (UniProt P31994 43-217, limits assumed); test: ELISA
T10 sequence (looked up): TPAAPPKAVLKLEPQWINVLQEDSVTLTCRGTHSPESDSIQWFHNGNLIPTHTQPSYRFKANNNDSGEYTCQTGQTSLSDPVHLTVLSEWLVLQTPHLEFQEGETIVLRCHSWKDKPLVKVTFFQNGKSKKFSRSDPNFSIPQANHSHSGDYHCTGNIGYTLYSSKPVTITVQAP

[21] = target: FcγRI (UniProt P12314 16-288, limits assumed); test: ELISA
[22] = target: FcγRIIIAF158 (UniProt P08637 17-208, limits assumed); test: ELISA
[23] = target: T11, FcγRIIAR131 (UniProt P12318 36-218, limits assumed); test: ELISA
T11 sequence (looked up): T9 sequence (looked up) with H132R

[24] = target: T1, Human CD137 (recombinant protein, …); test: SPR
[25] = target: T12, Monkey CD137 (recombinant protein, Example 11) (cynomolgus monkey, UniProt Q07011 24-186 (human entry), limits assumed); test: SPR
T12 construct: also called cynomolgus monkey CD137
T12 chain: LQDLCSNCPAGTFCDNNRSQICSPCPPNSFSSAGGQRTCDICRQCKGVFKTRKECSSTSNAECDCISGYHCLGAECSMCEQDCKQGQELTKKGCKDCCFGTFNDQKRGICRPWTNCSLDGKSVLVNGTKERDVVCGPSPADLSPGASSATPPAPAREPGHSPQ

[26] = target: T13, huGPC3-His (human, UniProt P51654 25-559); test: ELISA on huGPC3-His [C]
T13 construct: not shown: His tag

T1 sequence (Q07011 24-186 limits assumed): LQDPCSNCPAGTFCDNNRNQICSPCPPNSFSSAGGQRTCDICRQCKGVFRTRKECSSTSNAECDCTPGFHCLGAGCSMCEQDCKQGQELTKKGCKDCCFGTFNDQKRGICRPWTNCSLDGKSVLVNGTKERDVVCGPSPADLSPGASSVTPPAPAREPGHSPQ
T3 sequence (Q07011 24-255 limits assumed): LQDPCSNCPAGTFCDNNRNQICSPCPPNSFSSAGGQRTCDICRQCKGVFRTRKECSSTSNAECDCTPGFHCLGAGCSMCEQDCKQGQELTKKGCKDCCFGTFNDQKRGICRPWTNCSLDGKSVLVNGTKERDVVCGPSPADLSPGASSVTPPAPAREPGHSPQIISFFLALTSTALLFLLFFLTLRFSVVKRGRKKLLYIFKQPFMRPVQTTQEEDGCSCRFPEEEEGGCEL
Chain of C1q (P02745 23-245, chain 1 of 3): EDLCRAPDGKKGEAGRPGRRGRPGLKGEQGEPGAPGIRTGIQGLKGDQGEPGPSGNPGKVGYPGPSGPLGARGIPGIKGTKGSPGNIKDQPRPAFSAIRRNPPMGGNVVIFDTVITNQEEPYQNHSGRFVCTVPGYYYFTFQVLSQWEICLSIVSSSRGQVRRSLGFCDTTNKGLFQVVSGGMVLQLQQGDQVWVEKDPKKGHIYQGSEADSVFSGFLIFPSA
Chain of C1q (P02746 28-253, chain 2 of 3): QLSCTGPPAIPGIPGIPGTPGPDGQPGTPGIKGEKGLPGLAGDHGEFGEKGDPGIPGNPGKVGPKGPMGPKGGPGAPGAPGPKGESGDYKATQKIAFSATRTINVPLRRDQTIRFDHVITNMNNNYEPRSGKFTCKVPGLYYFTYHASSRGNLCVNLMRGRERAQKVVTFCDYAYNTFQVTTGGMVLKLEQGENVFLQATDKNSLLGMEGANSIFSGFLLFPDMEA
Chain of C1q (P02747 29-245, chain 3 of 3): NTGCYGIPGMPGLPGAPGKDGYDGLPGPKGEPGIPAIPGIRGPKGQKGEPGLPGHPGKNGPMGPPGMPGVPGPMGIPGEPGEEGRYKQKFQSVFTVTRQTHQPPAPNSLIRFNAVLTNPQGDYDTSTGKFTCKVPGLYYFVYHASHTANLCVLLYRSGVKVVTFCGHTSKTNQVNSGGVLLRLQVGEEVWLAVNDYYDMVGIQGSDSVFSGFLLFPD
Chain of Mouse GPC3 (Q8CFZ4 25-558 limits assumed): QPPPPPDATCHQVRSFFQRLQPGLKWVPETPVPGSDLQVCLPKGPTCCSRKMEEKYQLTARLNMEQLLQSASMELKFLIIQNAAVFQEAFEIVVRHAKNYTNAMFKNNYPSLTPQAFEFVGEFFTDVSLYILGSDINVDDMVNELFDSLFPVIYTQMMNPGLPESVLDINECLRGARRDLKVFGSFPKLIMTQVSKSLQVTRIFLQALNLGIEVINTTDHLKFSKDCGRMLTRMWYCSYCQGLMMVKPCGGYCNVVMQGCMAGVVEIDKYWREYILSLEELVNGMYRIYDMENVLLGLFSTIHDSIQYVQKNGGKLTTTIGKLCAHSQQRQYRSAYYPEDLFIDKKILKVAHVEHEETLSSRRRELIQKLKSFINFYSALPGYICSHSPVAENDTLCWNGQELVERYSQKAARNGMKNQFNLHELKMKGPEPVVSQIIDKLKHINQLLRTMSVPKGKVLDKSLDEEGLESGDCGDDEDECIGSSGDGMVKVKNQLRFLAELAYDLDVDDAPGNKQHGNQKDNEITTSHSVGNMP
Chain of FcγRIIIB (O75015 17-200 limits assumed): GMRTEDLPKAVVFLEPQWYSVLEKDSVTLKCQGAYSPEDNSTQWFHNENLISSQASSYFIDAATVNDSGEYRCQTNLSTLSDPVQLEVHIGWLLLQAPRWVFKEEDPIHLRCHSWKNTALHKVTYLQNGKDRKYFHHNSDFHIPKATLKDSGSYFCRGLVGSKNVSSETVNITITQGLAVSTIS
Chain of FcγRIIIAF158 (P08637 17-208 limits assumed): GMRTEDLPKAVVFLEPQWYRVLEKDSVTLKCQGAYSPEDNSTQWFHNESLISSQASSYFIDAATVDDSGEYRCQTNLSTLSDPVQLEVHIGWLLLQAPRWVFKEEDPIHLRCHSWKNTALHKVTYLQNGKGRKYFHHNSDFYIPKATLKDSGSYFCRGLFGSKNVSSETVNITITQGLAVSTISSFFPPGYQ
Chain of human CD137 ECD mutant P49A (Q07011 24-186 P49A limits assumed): as the sequence (Q07011 24-186 limits assumed) above, with P26A counted along it
Chain of FcγRI (P12314 16-288 limits assumed): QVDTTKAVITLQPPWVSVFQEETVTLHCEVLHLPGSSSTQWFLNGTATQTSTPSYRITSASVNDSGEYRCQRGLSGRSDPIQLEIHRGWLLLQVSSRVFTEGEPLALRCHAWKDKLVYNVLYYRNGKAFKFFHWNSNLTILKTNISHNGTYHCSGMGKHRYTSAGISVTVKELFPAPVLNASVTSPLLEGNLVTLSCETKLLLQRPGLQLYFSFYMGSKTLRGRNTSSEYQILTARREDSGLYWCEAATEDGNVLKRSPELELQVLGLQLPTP
Chain of human CD137 ECD mutant F36A (Q07011 24-186 F36A limits assumed): as the sequence (Q07011 24-186 limits assumed) above, with F13A counted along it
Chain of FcγRIIIAV158 (P08637 17-208 F176V limits assumed): as the sequence (P08637 17-208 limits assumed) above, with F160V counted along it
Chain of human CD137 ECD mutant P47A (Q07011 24-186 P47A limits assumed): as the sequence (Q07011 24-186 limits assumed) above, with P24A counted along it

B1: BE-830 (bispecific antibody, human IgG1, kappa)
heavy: QVQLVQSGAEVKKPGASVKVSCKASGYTFTDYEMHWVRQAPGQGLEWMGALDPKTGDTAYSQKFKGRVTLTADKSTSTAYMELSSLTSEDTAVYYCTRFYSYTYWGQGTLVTVSSASTKGPSVFPLAPSSKSTSGGTAALGCLVKDYFPEPVTVSWNSGALTSGVHTFPAVLQSSGLYSLSSVVTVPSSSLGTQTYICNVNHKPSNTKVDKKVEPKSCDKTHTCPPCPAPPAAGPSVFLFPPKPKDTLMISRTPEVTCVVVDVSHEDPEVKFNWYVDGVEVHNAKTKPREEQYNSTYRVVSVLTVLHQDWLNGKEYKCKVSNKALAAPIEKTISKAKGQPREPQVYTLPPSREEMTKNQVSLTCLVKGFYPSDIAVEWESNGQPENNYKTTPPVLDSDGSFFLYSKLTVDKSRWQQGNVFSCSVMHEALHNHYTQKSLSLSPGKGGGGSEVQLLESGGGLVQPGGSLRLSCAASGFTVSAEDVGWVRQAPGKGLEWVSAILDKGGSTYYAESVKGRFTISRDNAKNTLYLQMSSLRAEDTAVYYCARIVYHAGGGVTFDTRGQGTQVTVSS
light: DVVMTQSPLSLPVTPGEPASISCRSSQSLVHSNRNTYLHWYLQKPGQSPQLLIYKVSNRFSGVPDRFSGSGSGTDFTLKISRVEAEDVGVYYCSQNTHVPPTFGQGTKLEIKRTVAAPSVFIFPPSDEQLKSGTASVVCLLNNFYPREAKVQWKVDNALQSGNSQESVTEQDSKDSTYSLSSTLTLSKADYEKHKVYACEVTHQGLSSPVTKSFNRGEC
notes: also called GPC3×CD137 multispecific antibody BE-830; GPC3 x CD137 (BE-830)
EC50 (read off the curve) [1]: ~0.07 µg/mL | EC50 (read off the curve) [2]: ~0.07 µg/mL | decrease of binding activity against wild type CD137 [3]: > 75% | decrease of binding activity against wild type CD137 [4]: > 75% | decrease of binding activity against wild type CD137 [5]: > 75% | EC50 (read off the curve) [6]: ~2 µg/mL | EC50, cell-based bioluminescent assay (NFκB luciferase in JK-NFκB-CD137 co-cultured with Hepa1-6T-OS8-GPC3) [7]: 0.149 µg/ml and 0.86 nM | EC50, cell-based bioluminescent assay (NFκB luciferase in JK-NFκB-CD137 co-cultured with Hepa1-6T-OS8-GPC3) [8]: 0.149 µg/ml and 0.86 nM | EC50 (read off the curve) [9]: ~0.008 µg/mL | EC50 [10]: 0.712 µg/mL and 4.09 nM | EC50 [11]: 1.11 µg/mL and 6.41 nM | binding result [12]: no binding | binding result [13]: no binding | EC50 (read off the curve) [14]: ~0.009 µg/mL | Kd [15]: 0.643 nM | koff [15]: 0.000273 s⁻¹ | kon [15]: 425000 M⁻¹ s⁻¹ | Kd [16]: 0.559 nM | koff [16]: 0.000312 s⁻¹ | kon [16]: 559000 M⁻¹ s⁻¹ | binding result [17]: no binding | binding result [18]: no binding | binding result [19]: no binding | binding result [20]: no binding | binding result [21]: no binding | binding result [22]: no binding | binding result [23]: no binding | Kd [24]: 40.1 nM | koff [24]: 0.00484 s⁻¹ | kon [24]: 121000 M⁻¹ s⁻¹ | Kd [25]: 19.2 nM | koff [25]: 0.00291 s⁻¹ | kon [25]: 152000 M⁻¹ s⁻¹ | EC50 (read off the curve) [26]: ~0.04 µg/mL

Source: patent US20240209113A1 (BEIGENE SWITZERLAND, published 2024)
